Source: the Human Domainome abundance scans (Beltran et al. 2025)
± gives the uncertainty stated by the source.

B1: Tyrosine-protein kinase Lck, residues 63 to 120; numbered along this chain, P06239 (parent)
chain: DNLVIALHSYEPSHDGDLGFEKGEQLRILEQSGEWWKAQSLTTGQEGFIPFNFVAKAN

Variants of: B1
Assay: abundance fitness (aPCA) (normalised: wild type 0, dead -1); higher = more abundant; growth selection in yeast, the domain comes from the species named
Settings: Homo sapiens

E24G and E24T are within error of each other in abundance fitness: -0.725 ± 0.076 for the first, -0.754 ± 0.16 for the second.

E24R and E24I are within error of each other in abundance fitness: -0.902 ± 0.12 for the first, -0.758 ± 0.29 for the second.

E24N and E24K are within error of each other in abundance fitness: -0.608 ± 0.29 for the first, -0.82 ± 0.16 for the second.

E24Y and E24C are within error of each other in abundance fitness: -0.829 ± 0.29 for the first, -0.628 ± 0.12 for the second.

E24M and E24W are within error of each other in abundance fitness: -0.673 ± 0.15 for the first, -0.704 ± 0.13 for the second.

E24V and E24P are within error of each other in abundance fitness: -0.835 ± 0.1 for the first, -0.891 ± 0.15 for the second.

E24L and E24F are within error of each other in abundance fitness: -0.999 ± 0.13 for the first, -0.997 ± 0.24 for the second.

E24S and E24Q are within error of each other in abundance fitness: -0.506 ± 0.094 for the first, -0.385 ± 0.13 for the second.

Going from E24A to E24H, the abundance fitness falls from -0.357 ± 0.093 to -0.774 ± 0.15.

E24D and W35C are within error of each other in abundance fitness: -0.095 ± 0.11 for the first, -0.185 ± 0.15 for the second.

W35R and W35I are within error of each other in abundance fitness: 0.091 ± 0.085 for the first, -0.049 ± 0.13 for the second.

W35Q and W35L are within error of each other in abundance fitness: 0.069 ± 0.15 for the first, -0.029 ± 0.081 for the second.

First: W35A
Second: W35D
The abundance fitness of the first is higher: -0.044 ± 0.095 for the first, -0.444 ± 0.14 for the second.

W35Y and W35G are within error of each other in abundance fitness: -0.131 ± 0.2 for the first, -0.303 ± 0.11 for the second.

W35N and W35M are within error of each other in abundance fitness: -0.128 ± 0.15 for the first, 0.01 ± 0.12 for the second.

W35S and W35H are within error of each other in abundance fitness: 0.002 ± 0.11 for the first, -0.081 ± 0.14 for the second.

Q25H and Q25A are within error of each other in abundance fitness: -0.143 ± 0.27 for the first, -0.165 ± 0.089 for the second.

Q25P and Q25I are within error of each other in abundance fitness: -0.276 ± 0.12 for the first, -0.181 ± 0.13 for the second.

Q25T and Q25Y are within error of each other in abundance fitness: 0.078 ± 0.13 for the first, -0.047 ± 0.18 for the second.

Q25E and Q25V are within error of each other in abundance fitness: -0.021 ± 0.11 for the first, -0.017 ± 0.073 for the second.

Q25N and Q25K are within error of each other in abundance fitness: 0.069 ± 0.21 for the first, 0.09 ± 0.12 for the second.

Q25S and Q25W are within error of each other in abundance fitness: -0.053 ± 0.088 for the first, -0.169 ± 0.1 for the second.

Q25M and Q25C are within error of each other in abundance fitness: 0.022 ± 0.13 for the first, -0.096 ± 0.13 for the second.

Q25D and T42D are within error of each other in abundance fitness: -0.357 ± 0.14 for the first, -0.181 ± 0.13 for the second.

T42A and T42I are within error of each other in abundance fitness: -0.035 ± 0.082 for the first, -0.049 ± 0.083 for the second.

T42E and T42H are within error of each other in abundance fitness: -0.015 ± 0.13 for the first, -0.08 ± 0.15 for the second.

T42F and T42L are within error of each other in abundance fitness: -0.305 ± 0.14 for the first, -0.12 ± 0.097 for the second.

T42M and T42K are within error of each other in abundance fitness: -0.101 ± 0.15 for the first, 0.042 ± 0.12 for the second.

Compared with T42G, L41N is lower in abundance fitness: -0.248 ± 0.079 for the first, -0.624 ± 0.24 for the second.

Going from L41R to L41W, the abundance fitness falls from -0.513 ± 0.073 to -0.933 ± 0.12.

L41Y and L41H are within error of each other in abundance fitness: -0.65 ± 0.16 for the first, -0.765 ± 0.18 for the second.

L41Q and L41M are within error of each other in abundance fitness: -0.167 ± 0.2 for the first, -0.227 ± 0.13 for the second.

Going from L41G to L41T, the abundance fitness rises from -0.721 ± 0.08 to -0.149 ± 0.11.

First: L41I
Second: L41S
The abundance fitness of the first is higher: -0.058 ± 0.14 for the first, -0.478 ± 0.077 for the second.

L41K and L41P are within error of each other in abundance fitness: -0.348 ± 0.16 for the first, -0.339 ± 0.14 for the second.

Going from L41E to L41A, the abundance fitness falls from -0.153 ± 0.099 to -0.382 ± 0.094.

First: L41C
Second: L41D
The abundance fitness of the first is higher: -0.068 ± 0.1 for the first, -0.666 ± 0.2 for the second.

First: L41F
Second: S32R
The abundance fitness of the first is lower: -0.54 ± 0.12 for the first, 0.012 ± 0.081 for the second.

S32Q and S32E are the same in abundance fitness: 0.182 ± 0.22 for the first, 0.182 ± 0.13 for the second.

Compared with S32W, S32A is higher in abundance fitness: -0.455 ± 0.14 for the first, -0.067 ± 0.091 for the second.

First: S32K
Second: S32I
The abundance fitness of the first is higher: 0.06 ± 0.13 for the first, -0.226 ± 0.11 for the second.

First: S32L
Second: S32N
The abundance fitness of the first is lower: -0.377 ± 0.088 for the first, 0.101 ± 0.14 for the second.

S32Y and S32H are within error of each other in abundance fitness: -0.082 ± 0.12 for the first, -0.302 ± 0.18 for the second.

Compared with S32D, S32P is lower in abundance fitness: -0.07 ± 0.1 for the first, -0.407 ± 0.14 for the second.

S32T and S32G are within error of each other in abundance fitness: 0.05 ± 0.11 for the first, -0.071 ± 0.091 for the second.

Going from A38C to A38T, the abundance fitness falls from -0.4 ± 0.12 to -0.963 ± 0.23.

First: A38K
Second: A38V
The abundance fitness of the first is lower: -0.927 ± 0.27 for the first, -0.104 ± 0.082 for the second.

A38D and A38N are within error of each other in abundance fitness: -1.01 ± 0.31 for the first, -0.445 ± 0.26 for the second.

A38M and A38W are within error of each other in abundance fitness: -0.656 ± 0.2 for the first, -0.598 ± 0.19 for the second.

A38R and A38I are within error of each other in abundance fitness: -1.08 ± 0.15 for the first, -0.788 ± 0.3 for the second.

Compared with A38S, A38L is higher in abundance fitness: -0.795 ± 0.16 for the first, -0.337 ± 0.1 for the second.

A38Y and A38E are within error of each other in abundance fitness: -0.714 ± 0.22 for the first, -0.934 ± 0.19 for the second.

A38F and A38G are within error of each other in abundance fitness: -0.771 ± 0.28 for the first, -0.483 ± 0.077 for the second.

Compared with A38Q, G33S is higher in abundance fitness: -0.891 ± 0.34 for the first, -0.166 ± 0.097 for the second.

G33Y and G33K are within error of each other in abundance fitness: -0.922 ± 0.25 for the first, -0.545 ± 0.16 for the second.

G33A and G33D are within error of each other in abundance fitness: -0.398 ± 0.09 for the first, -0.467 ± 0.11 for the second.

G33L and G33Q are within error of each other in abundance fitness: -0.812 ± 0.12 for the first, -0.767 ± 0.33 for the second.

G33F and G33H are within error of each other in abundance fitness: -0.853 ± 0.23 for the first, -0.633 ± 0.17 for the second.

First: G33W
Second: G33P
The abundance fitness of the first is lower: -0.929 ± 0.18 for the first, -0.544 ± 0.14 for the second.

G33C and G33N are within error of each other in abundance fitness: -0.491 ± 0.13 for the first, -0.145 ± 0.26 for the second.

First: G33V
Second: G33E
The abundance fitness of the first is lower: -0.881 ± 0.12 for the first, -0.491 ± 0.12 for the second.

E34R and E34Q are within error of each other in abundance fitness: 0.006 ± 0.07 for the first, -0.149 ± 0.14 for the second.

Compared with E34S, E34L is lower in abundance fitness: -0.054 ± 0.081 for the first, -0.225 ± 0.078 for the second.

E34C and E34F are within error of each other in abundance fitness: -0.276 ± 0.11 for the first, -0.138 ± 0.2 for the second.

Compared with E34W, E34G is higher in abundance fitness: -0.34 ± 0.091 for the first, -0.13 ± 0.081 for the second.

E34V and E34T are within error of each other in abundance fitness: -0.076 ± 0.092 for the first, -0.092 ± 0.093 for the second.

E34P and E34H are within error of each other in abundance fitness: -0.183 ± 0.12 for the first, -0.205 ± 0.14 for the second.

E34I and E34N are within error of each other in abundance fitness: -0.142 ± 0.17 for the first, -0.203 ± 0.16 for the second.

E34A and E34M are within error of each other in abundance fitness: -0.065 ± 0.13 for the first, -0.262 ± 0.1 for the second.

E34Y and L29K are within error of each other in abundance fitness: -0.026 ± 0.19 for the first, -0.325 ± 0.14 for the second.

L29R and L29G are within error of each other in abundance fitness: -0.591 ± 0.091 for the first, -0.734 ± 0.089 for the second.

Compared with L29I, L29A is lower in abundance fitness: -0.339 ± 0.18 for the first, -0.645 ± 0.092 for the second.

Going from L29W to L29Q, the abundance fitness rises from -0.87 ± 0.2 to -0.401 ± 0.18.

First: L29P
Second: L29C
The abundance fitness of the first is lower: -1.05 ± 0.2 for the first, -0.441 ± 0.15 for the second.

Compared with L29D, L29T is higher in abundance fitness: -0.852 ± 0.18 for the first, -0.283 ± 0.097 for the second.

L29F and L29Y are within error of each other in abundance fitness: -0.527 ± 0.17 for the first, -0.227 ± 0.32 for the second.

L29S and L29H are within error of each other in abundance fitness: -0.44 ± 0.11 for the first, -0.184 ± 0.21 for the second.

L29M and K37H are within error of each other in abundance fitness: -0.315 ± 0.14 for the first, -0.388 ± 0.29 for the second.

First: K37A
Second: K37W
The abundance fitness of the first is lower: -0.615 ± 0.12 for the first, -0.152 ± 0.088 for the second.

K37I and K37T are within error of each other in abundance fitness: -0.151 ± 0.12 for the first, -0.267 ± 0.1 for the second.

Going from K37R to K37N, the abundance fitness falls from -0.046 ± 0.073 to -0.548 ± 0.17.

K37D and K37P are within error of each other in abundance fitness: -1.16 ± 0.29 for the first, -0.808 ± 0.18 for the second.

K37F and K37E are within error of each other in abundance fitness: -0.229 ± 0.14 for the first, -0.435 ± 0.1 for the second.

K37Y showed an abundance fitness of -0.177 ± 0.14.
